Assay in all cases: AUC
Experiment [1] addresses STAT2 N domain (aminoterminal domain), recombinant, mEGFP-tagged (human).
Experiment [2] deals with T1, STAT1 N domain (aminoterminal domain), recombinant.
T1 chain: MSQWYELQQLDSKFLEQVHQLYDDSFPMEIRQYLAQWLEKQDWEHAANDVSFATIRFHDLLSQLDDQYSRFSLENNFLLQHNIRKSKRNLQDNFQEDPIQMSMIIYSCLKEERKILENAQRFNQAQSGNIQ

Experiment [3] has as its target STAT2 N domain LL81,82AA, recombinant (human).

Some results are limits rather than exact numbers.

Sequence of STAT2 N domain (aminoterminal domain), recombinant, mEGFP-tagged (human) (chain, as listed by the source): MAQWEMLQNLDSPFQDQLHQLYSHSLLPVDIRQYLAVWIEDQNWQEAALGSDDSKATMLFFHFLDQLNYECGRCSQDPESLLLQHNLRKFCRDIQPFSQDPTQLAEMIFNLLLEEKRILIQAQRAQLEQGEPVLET
Sequence of STAT2 N domain LL81,82AA, recombinant (human) (chain, as listed by the source): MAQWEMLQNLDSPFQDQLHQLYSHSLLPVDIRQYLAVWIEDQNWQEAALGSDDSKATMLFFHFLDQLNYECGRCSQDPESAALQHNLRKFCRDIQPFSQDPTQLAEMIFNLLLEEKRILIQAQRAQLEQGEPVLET

B1: STAT1 N domain (aminoterminal domain), recombinant (domain or fragment)
chain: T1 chain
modifications: limits not printed (S1 Text/ref. 22); N domain taken up to the start of the conventional STAT1 core fragment (132-713); Strep-tag omitted limits not given; N domain taken up to the start of the core region (P52630 region from 138), homologous to STAT1 1-131; mEGFP and Strep-tag omitted
For B1, in experiment [1], the Kd (usually the concentration at which binding is half-saturated) is below 0.01 µM.

B2: STAT1 N domain (aminoterminal domain), recombinant (domain or fragment)
chain: T1 chain
modifications: limits not printed (S1 Text/ref. 22); N domain taken up to the start of the conventional STAT1 core fragment (132-713); Strep-tag omitted limits not printed (S1 Text/ref. 22); N domain taken up to the start of the conventional STAT1 core fragment (132-713); Strep-tag omitted
Take B2: the Kd in experiment [2] stood at 16.6 µM.

B3: STAT1 N domain (aminoterminal domain), recombinant (domain or fragment)
chain: T1 chain
modifications: limits not printed (S1 Text/ref. 22); N domain taken up to the start of the conventional STAT1 core fragment (132-713); Strep-tag omitted limits not given; same convention as m2; tags omitted
Consider B3, for which the Kd in experiment [3] came out at 5500 µM.

B4: STAT2 N domain (aminoterminal domain), recombinant, mEGFP-tagged (domain or fragment)
chain: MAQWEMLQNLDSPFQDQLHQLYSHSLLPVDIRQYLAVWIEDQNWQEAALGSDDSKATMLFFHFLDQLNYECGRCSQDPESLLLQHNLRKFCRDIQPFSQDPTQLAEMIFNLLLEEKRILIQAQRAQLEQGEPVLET
modifications: limits not given; N domain taken up to the start of the core region (P52630 region from 138), homologous to STAT1 1-131; mEGFP and Strep-tag omitted limits not given; N domain taken up to the start of the core region (P52630 region from 138), homologous to STAT1 1-131; mEGFP and Strep-tag omitted
In the case of B4, in experiment [1], the Kd is 705 µM.

(Values after article PMC5079630 (2016).)
